# Key:
# [1] = target: T1, SARS-CoV-2 바이러스 표면 단백질 (RBD), WT (SARS-CoV-2, UniProt P0DTC2 319-541); experiment: BLI (Octet), Full IgG culture supernatant on SARS-CoV-2 RBD
# [2] = target: T1, SARS-CoV-2 바이러스 표면 단백질 (RBD), WT; experiment: BLI (Octet), Full IgG on RBD WT
binder,measurement,setting,value
"No. 32 항체 (Full IgG) (antibody, V domains shown) VH: EVQLVQSGGGLIQPGGSLRLSCAASEFIVSSNYMTWVRQAPGKGLEWVSIIYPGGSTYYADSVKGRFTISRDNSKNTLYLRMNSLRAEDTAVYYCARDLPLTGTTLDYWGQGTLVTVSS VL: not shown",Kd,[1],0.147 nM
same,Kd,[2],0.305 nM
same,koff,[2],0.000193 s⁻¹
same,kon,[2],633000 M⁻¹ s⁻¹

# Reference: patent KR20220013297A (dated 2022)
